Columns and labels:
[1] = target: T1, human SIRPa v1 expressed by blood monocytes or monocyte-derived cells (V1/V1 donors) (human, UniProt P78324 31-504); test: FACS competition on human monocytes of V1/V1 donors; blocked ligand: biotinylated CD47Fc, revealed with streptavidin-PE
T1 construct: donors were typed on exon 3; also called variant 1
Procedure: (§1) METHOD: Human monocytes (purified by elutriation from human PBMC at DTC platform, Nantes, and frozen in DMSO at 10M/ml at −80° C. or liquid nitrogen) were thawed in 40 mL complete RPMI medium. Then immediately centrifuged at 1000 rpm during 10 minCells are resuspended in 10 mL of RPMI medium and counted on Malassez cell. Frozen human monocytes are thawed, diluted samples are added and biotinylated CD47Fc is added afterwards. […] The following protocol was applied: —Put 100,000 human monocytes per well on V-bottom P96 plate; —Centrifuge 1 min at 2500 rpm and empty wells by flicking the plate; —Wash cells 2 times with 200 μL PSE (Centrifuge 1 min at 2500 rpm and empty wells); —Prepare 8 dilutions of the sample beginning with 10 μg/mL (concentrated 2×, final concentration 5 μg/mL) and diluting by steps of 3; —Add 12.5 μL of sample/well on cells and mix; —Incubate 15 min on ice; —Prepare CD47Fc biotinylated solution concentrated 2×, determined in function of paragraph and add 12.5 μL of this solution/well on cells and mix.—Incubate 30 min on ice; —Add 175 μL PSE/w-Centrifuge 1 min at 2500 rpm and empty wells; —Wash cells 2 times with 200 μL PSE (Centrifuge 1 min at 2500 rpm and empty wells). An intermediate concentration is chosen for CD47Fc biotinylated. Here, 5 μg/mL CD47Fc biotinylated are took for the antagonist test. […]

[2] = target: T2, SIRPa V3 (SNP1 + 2 + 3 + 4 + 5 + 6) recombinant protein, extracellular domain fused with mouse Fc from IgG2a (human; mouse, UniProt P78324 31-373); test: ELISA on immobilised SIRPa variant-mouse Fc, donkey anti-human IgG peroxidase, TMB 450 nm; given as ED50
T2 construct: SNP3 (51 A) is silent; not shown: mouse Fc from IgG2a
T2 chain: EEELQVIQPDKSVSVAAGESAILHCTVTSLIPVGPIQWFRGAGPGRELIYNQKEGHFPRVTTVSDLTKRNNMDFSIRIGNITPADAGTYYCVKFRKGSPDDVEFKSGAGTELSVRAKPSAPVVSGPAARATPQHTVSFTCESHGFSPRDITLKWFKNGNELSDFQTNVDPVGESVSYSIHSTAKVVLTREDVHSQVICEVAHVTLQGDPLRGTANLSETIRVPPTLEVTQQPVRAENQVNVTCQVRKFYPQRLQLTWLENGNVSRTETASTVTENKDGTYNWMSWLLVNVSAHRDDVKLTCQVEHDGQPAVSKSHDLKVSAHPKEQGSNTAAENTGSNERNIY
Procedure: (§2) FIG. 4. SIRPa variants binding study using anti-human SIRPa v1 antibody and Kwar antibody by Elisa. Assessment of the binding by ELISA on immobilized SIRPa mutated variants (SIRPa from v1 to v8, see Table 2 in example 1) linked to the mouse Fc domain. Anti-human SIRPa v1 antibody and Kwar antibody (known to bind both SIRPa v1 and SIRPa v2) were compared for their ability to bind the different SIRPa mutated variants.
(§3) Method: The binding activity of the anti-SIRPa antibodies was assessed by ELISA. For the ELISA assay, the in-house anti-human SIRPa v1 antibody and Kwar antibody were tested on 8 different mutated hSIRPa (SIRPA v1 to v8; see table 2). The different variants of mutated hSIRPa (SIRPa v1 to v8) were immobilized on plastic at 0.5 μg/ml in carbonate buffer (pH9.2) and the purified antibody was added to measure binding.

[3] = target: T3, SIRPa V6 (SNP12 + 13) recombinant protein, extracellular domain fused with mouse Fc from IgG2a (human; mouse, UniProt P78324 31-373); test: as above
T3 construct: SNP13 is printed as 101 N without a change; not shown: mouse Fc from IgG2a
Procedure: as §2, §3

[4] = target: T4, SIRPa V5 (SNP9 + 10 + 11) recombinant protein, extracellular domain fused with mouse Fc from IgG2a (human; mouse, UniProt P78324 31-373); test: as above
T4 construct: SNP11 (97 T) is silent; not shown: mouse Fc from IgG2a
Procedure: as §2, §3

[5] = target: T5, SIRPa V4 (SNP8) recombinant protein, extracellular domain fused with mouse Fc from IgG2a (human; mouse, UniProt P78324 31-373); test: as above
T5 construct: not shown: mouse Fc from IgG2a
Procedure: as §2, §3

[6] = target: T6, SIRPa V7 (SNP14 + ?) recombinant protein, extracellular domain fused with mouse Fc from IgG2a (human; mouse, UniProt P78324 31-373); test: as above
T6 construct: not shown: mouse Fc from IgG2a
Procedure: as §2, §3

[7] = target: T7, SIRPa V1 recombinant protein (extracellular domain fused with mouse Fc from IgG2a) (human; mouse, UniProt P78324 31-373); test: as above
T7 construct: not shown: mouse Fc from IgG2a
Procedure: as §2, §3

[8] = target: T8, human SIRPa v2 expressed by blood monocytes (V2/V2 donors) (human, UniProt P78324 31-504); test: FACS competition on human monocytes of V2/V2 donors; blocked ligand: biotinylated CD47Fc, revealed with streptavidin-PE
T8 construct: also called variant 2; V2 protein
Procedure: as §1

T1 sequence (P78324 31-504 limits assumed): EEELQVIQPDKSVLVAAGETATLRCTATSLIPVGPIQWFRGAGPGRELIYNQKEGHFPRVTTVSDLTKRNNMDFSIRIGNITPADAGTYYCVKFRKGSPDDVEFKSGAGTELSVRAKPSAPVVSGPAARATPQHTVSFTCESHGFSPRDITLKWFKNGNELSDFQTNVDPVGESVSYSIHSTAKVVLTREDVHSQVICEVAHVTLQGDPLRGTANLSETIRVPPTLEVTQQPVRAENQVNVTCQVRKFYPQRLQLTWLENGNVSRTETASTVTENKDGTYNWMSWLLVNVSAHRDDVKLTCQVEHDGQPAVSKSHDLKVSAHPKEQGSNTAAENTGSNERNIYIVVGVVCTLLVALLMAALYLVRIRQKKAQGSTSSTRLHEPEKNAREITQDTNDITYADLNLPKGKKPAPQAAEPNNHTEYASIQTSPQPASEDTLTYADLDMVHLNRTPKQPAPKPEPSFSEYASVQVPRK

B1: in-house anti-human SIRPa v1 antibody (antibody, human IgG4, V domains shown)
VH: EVQLVQSGAEVKKPGESLRISCKASGYSFTSYWVHWVRQMPGKGLEWMGNIDPSDSDTHYSPSFQGHVTLSVDKSISTAYLQLSSLKASDTAMYYCVRGGTGTLAYFAYWGQGTLVTVSS
VL: DVVMTQSPLSLPVTLGQPASISCRSSQSLVHSYGNTYLYWFQQRPGQSPRLLIYRVSNRFSGVPDRFSGSGSGTDFTLKISRVEAEDVGVYYCFQGTHVPYTFGGGTKVEIK
notes: also called in-house anti-SIRPa v1 antibody; in-house antibody
[1]
  IC50 (read off the curve): ~90 ng/mL
[2]
  EC50: 0.99 ng/mL
[3]
  EC50: 0.72 ng/mL
[4]
  EC50: 0.63 ng/mL
[5]
  EC50: 0.71 ng/mL
[6]
  EC50: 0.54 ng/mL
[7]
  EC50: 0.78 ng/mL
[8]
  IC50 (read off the curve): ~200 ng/mL

Source: patent US20210040206A1 (OSE IMMUNOTHERAPEUTICS, published 2021)
